From the supplement of paper PMC10567573

B1: TRIM9 (parent)
chain: CVQCKMPVCYQCLEEGKHSSHEVK

Variants of: B1
Assay: protein stability index of a GFP-peptide fusion (GPS, HEK-293T) (PSI 1-6); higher = more stable
Details: c terminus: a fixed tail appended
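Further: lentivirally expressed fusions sorted by FACS into six bins by GFP to DsRed ratio, PSI derived from sequencing read proportions per bin multiplied by bin number.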

Point of comparison: CVQCKMPVCRQCLEEGKHSSHEVK, protein stability index 4.27. Against it:
- CVQCKMPLCYQCLEEGKHSSHEVK — lower, 3.65
- CVQCKMPMCYQCLEEGKHSSHEVK — lower, 4.13
- CVQCKMPTCYQCLEEGKHSSHEVK — lower, 3.79
- CVQCKMPACYQCLEEGKHSSHEVK — lower, 4.13
- CVQCKMPFCYQCLEEGKHSSHEVK — lower, 4.03
- CVQCKMPCCYQCLEEGKHSSHEVK — lower, 3.95
- CVQCKMPICYQCLEEGKHSSHEVK — lower, 3.66
- CVQCKMPNCYQCLEEGKHSSHEVK — higher, 4.49
- CVQCKMPHCYQCLEEGKHSSHEVK — higher, 4.89
- CVQCKMPGCYQCLEEGKHSSHEVK — higher, 4.82
- CVQCKMPSCYQCLEEGKHSSHEVK — higher, 4.53
- CVQCKMPWCYQCLEEGKHSSHEVK — lower, 3.76
- CVQCKMPRCYQCLEEGKHSSHEVK — lower, 3.75
- CVQCKMPECYQCLEEGKHSSHEVK — higher, 4.41
- CVQCKMPDCYQCLEEGKHSSHEVK — lower, 4.21
- CVQCKMPKCYQCLEEGKHSSHEVK — higher, 5.1
- CVQCKMPYCYQCLEEGKHSSHEVK — lower, 3.01
- CVQCKMPQCYQCLEEGKHSSHEVK — higher, 4.33
- CVQCKMPPCYQCLEEGKHSSHEVK — lower, 3.61
- CYQCKMPVCYQCLEEGKHSSHEVK — lower, 3.71
- CPQCKMPVCYQCLEEGKHSSHEVK — lower, 4.18
- CTQCKMPVCYQCLEEGKHSSHEVK — lower, 3.85
- CLQCKMPVCYQCLEEGKHSSHEVK — lower, 3.5
- CCQCKMPVCYQCLEEGKHSSHEVK — lower, 3.98
- CRQCKMPVCYQCLEEGKHSSHEVK — lower, 3.8
- CAQCKMPVCYQCLEEGKHSSHEVK — lower, 3.97
- CNQCKMPVCYQCLEEGKHSSHEVK — lower, 3.46
- CKQCKMPVCYQCLEEGKHSSHEVK — higher, 4.29
- CGQCKMPVCYQCLEEGKHSSHEVK — lower, 3.6
- CFQCKMPVCYQCLEEGKHSSHEVK — lower, 3.51
- CQQCKMPVCYQCLEEGKHSSHEVK — lower, 4.04
- CSQCKMPVCYQCLEEGKHSSHEVK — lower, 4.25
- CEQCKMPVCYQCLEEGKHSSHEVK — lower, 3.92
- CDQCKMPVCYQCLEEGKHSSHEVK — lower, 4.16
- CWQCKMPVCYQCLEEGKHSSHEVK — lower, 3.16
- CIQCKMPVCYQCLEEGKHSSHEVK — lower, 4.02
- CMQCKMPVCYQCLEEGKHSSHEVK — lower, 3.67
- CHQCKMPVCYQCLEEGKHSSHEVK — higher, 4.63
- CVQCKMPVGYQCLEEGKHSSHEVK — higher, 4.47
- CVQCKMPVQYQCLEEGKHSSHEVK — lower, 4.09
- CVQCKMPVDYQCLEEGKHSSHEVK — higher, 4.45
- CVQCKMPVWYQCLEEGKHSSHEVK — lower, 2.96
- CVQCKMPVFYQCLEEGKHSSHEVK — lower, 2.59
- CVQCKMPVPYQCLEEGKHSSHEVK — lower, 3.02
- CVQCKMPVRYQCLEEGKHSSHEVK — lower, 3.31
- CVQCKMPVMYQCLEEGKHSSHEVK — lower, 3.64
- CVQCKMPVLYQCLEEGKHSSHEVK — lower, 3.28
- CVQCKMPVAYQCLEEGKHSSHEVK — lower, 4.19
- CVQCKMPVIYQCLEEGKHSSHEVK — lower, 3.18
- CVQCKMPVNYQCLEEGKHSSHEVK — lower, 3.87
- CVQCKMPVTYQCLEEGKHSSHEVK — higher, 4.41
- CVQCKMPVVYQCLEEGKHSSHEVK — lower, 4.07
- CVQCKMPVSYQCLEEGKHSSHEVK — lower, 4.24
- CVQCKMPVYYQCLEEGKHSSHEVK — lower, 2.8
- CVQCKMPVHYQCLEEGKHSSHEVK — lower, 3.5
- CVQDKMPVCYQCLEEGKHSSHEVK — lower, 4.01
- CVQYKMPVCYQCLEEGKHSSHEVK — lower, 3.86
- CVQNKMPVCYQCLEEGKHSSHEVK — lower, 3.3
- CVQQKMPVCYQCLEEGKHSSHEVK — lower, 3.39
- CVQRKMPVCYQCLEEGKHSSHEVK — lower, 2.83
- CVQHKMPVCYQCLEEGKHSSHEVK — lower, 3.62
- CVQEKMPVCYQCLEEGKHSSHEVK — lower, 3.38
- CVQWKMPVCYQCLEEGKHSSHEVK — lower, 3.17
- CVQFKMPVCYQCLEEGKHSSHEVK — lower, 2.66
- CVQTKMPVCYQCLEEGKHSSHEVK — lower, 2.93
- CVQKKMPVCYQCLEEGKHSSHEVK — lower, 4.13
- CVQVKMPVCYQCLEEGKHSSHEVK — lower, 2.9
- CVQSKMPVCYQCLEEGKHSSHEVK — lower, 3.23
- CVQIKMPVCYQCLEEGKHSSHEVK — lower, 2.44
- CVQLKMPVCYQCLEEGKHSSHEVK — lower, 3.68
- CVQAKMPVCYQCLEEGKHSSHEVK — lower, 3.2
- CVQPKMPVCYQCLEEGKHSSHEVK — lower, 4.11
- CVQMKMPVCYQCLEEGKHSSHEVK — lower, 3.37
- CVQGKMPVCYQCLEEGKHSSHEVK — lower, 3.15
- CVQCKMPVCAQCLEEGKHSSHEVK — lower, 4.26
- CVQCKMPVCVQCLEEGKHSSHEVK — lower, 3.74
- CVQCKMPVCDQCLEEGKHSSHEVK — higher, 4.83
- CVQCKMPVCLQCLEEGKHSSHEVK — higher, 4.61
- CVQCKMPVCNQCLEEGKHSSHEVK — the same, 4.27
- CVQCKMPVCPQCLEEGKHSSHEVK — lower, 3.63
- CVQCKMPVCCQCLEEGKHSSHEVK — lower, 3.58
- CVQCKMPVCSQCLEEGKHSSHEVK — lower, 3.97
- CVQCKMPVCFQCLEEGKHSSHEVK — lower, 4
- CVQCKMPVCQQCLEEGKHSSHEVK — lower, 4.16
- CVQCKMPVCMQCLEEGKHSSHEVK — lower, 4.08
- CVQCKMPVCEQCLEEGKHSSHEVK — higher, 4.32
- CVQCKMPVCWQCLEEGKHSSHEVK — lower, 2.51
- CVQCKMPVCTQCLEEGKHSSHEVK — lower, 3.52
- CVQCKMPVCHQCLEEGKHSSHEVK — lower, 4
- CVQCKMPVCIQCLEEGKHSSHEVK — lower, 3.71
- CVQCKMPVCKQCLEEGKHSSHEVK — lower, 4.15
- CVQCTMPVCYQCLEEGKHSSHEVK — lower, 3.38
- CVQCDMPVCYQCLEEGKHSSHEVK — lower, 3.75
